Results: paper PMC3087504, “DNA Damage in Oocytes Induces a Switch of the Quality Control Factor TAp63α from Dimer to Tetramer” (Cell, 2011)

Legend:
[1] = target: the molecule itself; test: AUC; sedimentation velocity, 45,000 rpm, 4 μM protein, 4°C, 20 mM potassium phosphate pH 7.5, 200 mM NaCl, 2 mM dithiothreitol
[2] = target: the molecule itself; test: SEC; lysate of 16 ovaries of non-irradiated or γ-irradiated (0.52 Gy) P5 mice, Superose 6 PC 3.2/30, 4°C, 50 mM sodium phosphate, 100 mM NaCl, phosphatase inhibitors; fractions blotted with 4A4; dimer fraction 1.55 ml, tetramer fraction 1.3 ml
[3] = target: the molecule itself; test: SEC; lysate of ovaries of irradiated mice incubated with λ-Protein Phosphatase (30°C, 45 min, 1.25 mM MnCl2), then Superose 6 PC 3.2/30 and western blot

| Protein | stoichiometry N [2] | further results |
| --- | --- | --- |
| MBP-TAp63γ (natural protein, mouse, UniProt O88898-5 40-483, looked up, 193 amino acids less per monomer than TAp63α; cloned into pMAL-c4X; almost equal distribution between dimers and tetramers at 30 nM; source: E. coli (T7 express), purified (Ni-Sepharose, Amylose resin, SEC); not shown: MBP, N-terminal, kept) MSQSTQTSEFLSPEVFQHIWDFLEQPICSVQPIELNFVDEPSENGATNKIEISMDCIRMQDSDLSDPMWPQYTNLGLLNSMDQQIQNGSSSTSPYNTDHAQNSVTAPSPYAQPSSTFDALSPSPAIPSNTDYPGPHSFDVSFQQSSTAKSATWTYSTELKKLYCQIAKTCPIQIKVMTPPPQGAVIRAMPVYKKAEHVTEVVKRCPNHELSREFNEGQIAPPSHLIRVEGNSHAQYVEDPITGRQSVLVPYEPPQVGTEFTTVLYNFMCNSSCVGGMNRRPILIIVTLETRDGQVLGRRCFEARICACPGRDRKADEDSIRKQQVSDSAKNGDAFRQNTHGIQMTSIKKRRSPDDELLYLPVRGRETYEMLLKIKESLELMQYLPQHTIETYRQQQQQQHQHLLQKHLLSACFRNELVEPRGEAPTQSDVFFRHSNPPNHSVYP |  | stoichiometry N [1]: 4 |
| TAp63α in oocytes of non-irradiated mice (natural protein, UniProt O88898-1 40-680, looked up, endogenous murine TAp63α of oocytes; also called TAp63α (NIRR); source: endogenous, ovary lysate of non-irradiated P5 CD-1 mice) MSQSTQTSEFLSPEVFQHIWDFLEQPICSVQPIELNFVDEPSENGATNKIEISMDCIRMQDSDLSDPMWPQYTNLGLLNSMDQQIQNGSSSTSPYNTDHAQNSVTAPSPYAQPSSTFDALSPSPAIPSNTDYPGPHSFDVSFQQSSTAKSATWTYSTELKKLYCQIAKTCPIQIKVMTPPPQGAVIRAMPVYKKAEHVTEVVKRCPNHELSREFNEGQIAPPSHLIRVEGNSHAQYVEDPITGRQSVLVPYEPPQVGTEFTTVLYNFMCNSSCVGGMNRRPILIIVTLETRDGQVLGRRCFEARICACPGRDRKADEDSIRKQQVSDSAKNGDGTKRPFRQNTHGIQMTSIKKRRSPDDELLYLPVRGRETYEMLLKIKESLELMQYLPQHTIETYRQQQQQQHQHLLQKQTSMQSQSSYGNSSPPLNKMNSMNKLPSVSQLINPQQRNALTPTTMPEGMGANIPMMGTHMPMAGDMNGLSPTQALPPPLSMPSTSHCTPPPPYPTDCSIVSFLARLGCSSCLDYFTTQGLTTIYQIEHYSMDDLASLKIPEQFRHAIWKGILDHRQLHDFSSPPHLLRTPSGASTVSVGSSETRGERVIDAVRFTLRQTISFPPRDEWNDFNFDMDSRRNKQQRIKEEGE | 2 |  |
| phosphorylated TAp63α in oocytes of γ-irradiated mice (natural protein, UniProt O88898-1 40-680, looked up, phosphorylated after γ-irradiation; sites not stated, endogenous murine TAp63α of oocytes, phosphorylated after DNA damage; both dimer and tetramer fractions hold protein after irradiation; also called TAp63α (IRR); source: endogenous, ovary lysate of P5 CD-1 mice 6 hr after 0.52 Gy γ-irradiation) MSQSTQTSEFLSPEVFQHIWDFLEQPICSVQPIELNFVDEPSENGATNKIEISMDCIRMQDSDLSDPMWPQYTNLGLLNSMDQQIQNGSSSTSPYNTDHAQNSVTAPSPYAQPSSTFDALSPSPAIPSNTDYPGPHSFDVSFQQSSTAKSATWTYSTELKKLYCQIAKTCPIQIKVMTPPPQGAVIRAMPVYKKAEHVTEVVKRCPNHELSREFNEGQIAPPSHLIRVEGNSHAQYVEDPITGRQSVLVPYEPPQVGTEFTTVLYNFMCNSSCVGGMNRRPILIIVTLETRDGQVLGRRCFEARICACPGRDRKADEDSIRKQQVSDSAKNGDGTKRPFRQNTHGIQMTSIKKRRSPDDELLYLPVRGRETYEMLLKIKESLELMQYLPQHTIETYRQQQQQQHQHLLQKQTSMQSQSSYGNSSPPLNKMNSMNKLPSVSQLINPQQRNALTPTTMPEGMGANIPMMGTHMPMAGDMNGLSPTQALPPPLSMPSTSHCTPPPPYPTDCSIVSFLARLGCSSCLDYFTTQGLTTIYQIEHYSMDDLASLKIPEQFRHAIWKGILDHRQLHDFSSPPHLLRTPSGASTVSVGSSETRGERVIDAVRFTLRQTISFPPRDEWNDFNFDMDSRRNKQQRIKEEGE | 4 |  |
| λ-phosphatase-treated TAp63α obtained from irradiated oocytes (natural protein, UniProt O88898-1 40-680, looked up, endogenous murine TAp63α of irradiated oocytes after dephosphorylation in the lysate; kept apart because it was first phosphorylated in vivo and then dephosphorylated; also called dephosphorylated TAp63α (IRR + λPP); source: endogenous, ovary lysate of irradiated P5 mice, treated with λ-Protein Phosphatase (30°C, 45 min)) MSQSTQTSEFLSPEVFQHIWDFLEQPICSVQPIELNFVDEPSENGATNKIEISMDCIRMQDSDLSDPMWPQYTNLGLLNSMDQQIQNGSSSTSPYNTDHAQNSVTAPSPYAQPSSTFDALSPSPAIPSNTDYPGPHSFDVSFQQSSTAKSATWTYSTELKKLYCQIAKTCPIQIKVMTPPPQGAVIRAMPVYKKAEHVTEVVKRCPNHELSREFNEGQIAPPSHLIRVEGNSHAQYVEDPITGRQSVLVPYEPPQVGTEFTTVLYNFMCNSSCVGGMNRRPILIIVTLETRDGQVLGRRCFEARICACPGRDRKADEDSIRKQQVSDSAKNGDGTKRPFRQNTHGIQMTSIKKRRSPDDELLYLPVRGRETYEMLLKIKESLELMQYLPQHTIETYRQQQQQQHQHLLQKQTSMQSQSSYGNSSPPLNKMNSMNKLPSVSQLINPQQRNALTPTTMPEGMGANIPMMGTHMPMAGDMNGLSPTQALPPPLSMPSTSHCTPPPPYPTDCSIVSFLARLGCSSCLDYFTTQGLTTIYQIEHYSMDDLASLKIPEQFRHAIWKGILDHRQLHDFSSPPHLLRTPSGASTVSVGSSETRGERVIDAVRFTLRQTISFPPRDEWNDFNFDMDSRRNKQQRIKEEGE |  | stoichiometry N [3]: 4 |
